Our source for the Kd values is patent US20230132667.

Where two headings read alike, the source gives them in different places.

Series [1] concerns the target T1, P-TEFb/AFF4/Tat(1-57) core super elongation complex (CDK9/CycT1/AFF4/Tat) (Homo sapiens (CDK9, CycT1, AFF4)?; HIV-1 (Tat)) (UniProt P50750+O60563+Q9UHB7+P04608). To be noted: CITED mutational data (apparently), cited from earlier work.
For series [2], the target named is T1, P-TEFb/AFF4/Tat(1-57) core super elongation complex (CDK9/CycT1/AFF4/Tat) (Homo sapiens (CDK9, CycT1, AFF4)?; HIV-1 (Tat)). Briefly: EMSA. To be noted: 250x yeast tRNA. (A gel shift assay detects complexes by their altered migration in electrophoresis.)

With “GGCAGAUCUGAGCCCAAAAGCUCUCUGCC [HIV-1 TAR loop mutant UGGG to CAAA]”, the Kd in series [1] ([15-18], CAAA loop) was above 10 nM.

As to “GGCAGAUCUGAGCCUGGGAGCUCUCUGCC [HIV-1 TAR]”, the Kd in series [1] (wild-type UGGG loop) was 0.23 nM; in series [2] (0.5 nM RNA, 0-90 nM complex, 6% native gel) it was 0.34 nM; in series [2] (TAR preincubated with 10 nM Palbociclib) it was 35.6 nM.
